What was measured:
Assay in all cases: cell array, transfected fixed HEK293 cells
EDN1 = molecular target: T1, EDN1 (human, UniProt P05305)
T1 construct: expressed in transfected HEK293 cells
T1 sequence (looked up): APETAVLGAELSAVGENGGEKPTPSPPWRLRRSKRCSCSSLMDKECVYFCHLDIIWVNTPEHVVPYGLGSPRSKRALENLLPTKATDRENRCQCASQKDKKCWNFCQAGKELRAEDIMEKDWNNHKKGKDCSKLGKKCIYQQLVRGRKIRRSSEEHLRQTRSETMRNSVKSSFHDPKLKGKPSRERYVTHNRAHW
Description: (§1) Transfection of all plasmids was confirmed by screening for the co-encoded marker ZS green (FIG. 13A).
(§2) Primary hits (duplicate spots) were identified by analysing fluorescence (AF647 and ZsGreenl) on ImageQuant. Vectors encoding all hits were sequenced to confirm their correct identities. […] Slides were analysed as above.

COL23A1 = molecular target: T2, COL23A1 (human, UniProt Q86Y22)
T2 construct: expressed in transfected HEK293 cells
Description: as §1, §2

ANXA6 = molecular target: T3, ANXA6 (human, UniProt P08133)
T3 construct: expressed in transfected HEK293 cells
T3 sequence (looked up): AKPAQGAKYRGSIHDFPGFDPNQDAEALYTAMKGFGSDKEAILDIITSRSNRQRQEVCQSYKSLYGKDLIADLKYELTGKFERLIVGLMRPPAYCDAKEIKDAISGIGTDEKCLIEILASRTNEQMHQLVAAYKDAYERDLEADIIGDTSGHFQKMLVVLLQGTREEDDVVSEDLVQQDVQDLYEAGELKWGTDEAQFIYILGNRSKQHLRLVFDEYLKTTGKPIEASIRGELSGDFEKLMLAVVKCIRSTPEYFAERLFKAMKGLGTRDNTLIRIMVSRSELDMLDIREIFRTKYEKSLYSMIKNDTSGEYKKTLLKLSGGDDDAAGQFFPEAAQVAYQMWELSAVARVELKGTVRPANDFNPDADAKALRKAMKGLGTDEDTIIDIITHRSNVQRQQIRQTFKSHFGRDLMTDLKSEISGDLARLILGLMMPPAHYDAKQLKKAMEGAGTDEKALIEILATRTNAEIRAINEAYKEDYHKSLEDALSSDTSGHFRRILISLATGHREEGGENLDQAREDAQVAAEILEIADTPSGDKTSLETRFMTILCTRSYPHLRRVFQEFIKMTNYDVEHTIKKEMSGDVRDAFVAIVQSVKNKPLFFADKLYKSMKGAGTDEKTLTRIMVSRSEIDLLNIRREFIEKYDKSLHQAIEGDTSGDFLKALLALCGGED
Description: as §1, §2

TGM2 = molecular target: T4, TGM2 (human, UniProt P21980)
T4 construct: expressed in transfected HEK293 cells
T4 sequence (looked up): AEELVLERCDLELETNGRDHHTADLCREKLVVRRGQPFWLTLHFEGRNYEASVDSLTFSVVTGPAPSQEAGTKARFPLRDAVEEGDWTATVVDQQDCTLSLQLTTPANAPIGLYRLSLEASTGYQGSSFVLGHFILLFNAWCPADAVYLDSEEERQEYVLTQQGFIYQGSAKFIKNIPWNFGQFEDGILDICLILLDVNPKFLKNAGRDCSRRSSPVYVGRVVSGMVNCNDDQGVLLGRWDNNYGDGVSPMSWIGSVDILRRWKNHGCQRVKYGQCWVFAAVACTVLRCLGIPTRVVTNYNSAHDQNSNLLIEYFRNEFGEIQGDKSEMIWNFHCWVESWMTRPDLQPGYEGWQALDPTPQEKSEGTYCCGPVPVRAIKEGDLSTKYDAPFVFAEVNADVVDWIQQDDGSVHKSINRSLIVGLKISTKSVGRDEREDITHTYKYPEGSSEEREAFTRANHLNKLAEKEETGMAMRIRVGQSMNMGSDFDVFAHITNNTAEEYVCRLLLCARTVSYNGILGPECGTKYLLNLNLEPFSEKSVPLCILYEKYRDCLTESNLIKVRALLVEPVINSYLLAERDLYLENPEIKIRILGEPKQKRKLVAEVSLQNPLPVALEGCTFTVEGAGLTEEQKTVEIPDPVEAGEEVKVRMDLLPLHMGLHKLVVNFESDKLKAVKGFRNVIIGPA
Description: as §1, §2

SLMAP = molecular target: T5, SLMAP (human, UniProt Q14BN4)
T5 construct: expressed in transfected HEK293 cells
T5 sequence (looked up): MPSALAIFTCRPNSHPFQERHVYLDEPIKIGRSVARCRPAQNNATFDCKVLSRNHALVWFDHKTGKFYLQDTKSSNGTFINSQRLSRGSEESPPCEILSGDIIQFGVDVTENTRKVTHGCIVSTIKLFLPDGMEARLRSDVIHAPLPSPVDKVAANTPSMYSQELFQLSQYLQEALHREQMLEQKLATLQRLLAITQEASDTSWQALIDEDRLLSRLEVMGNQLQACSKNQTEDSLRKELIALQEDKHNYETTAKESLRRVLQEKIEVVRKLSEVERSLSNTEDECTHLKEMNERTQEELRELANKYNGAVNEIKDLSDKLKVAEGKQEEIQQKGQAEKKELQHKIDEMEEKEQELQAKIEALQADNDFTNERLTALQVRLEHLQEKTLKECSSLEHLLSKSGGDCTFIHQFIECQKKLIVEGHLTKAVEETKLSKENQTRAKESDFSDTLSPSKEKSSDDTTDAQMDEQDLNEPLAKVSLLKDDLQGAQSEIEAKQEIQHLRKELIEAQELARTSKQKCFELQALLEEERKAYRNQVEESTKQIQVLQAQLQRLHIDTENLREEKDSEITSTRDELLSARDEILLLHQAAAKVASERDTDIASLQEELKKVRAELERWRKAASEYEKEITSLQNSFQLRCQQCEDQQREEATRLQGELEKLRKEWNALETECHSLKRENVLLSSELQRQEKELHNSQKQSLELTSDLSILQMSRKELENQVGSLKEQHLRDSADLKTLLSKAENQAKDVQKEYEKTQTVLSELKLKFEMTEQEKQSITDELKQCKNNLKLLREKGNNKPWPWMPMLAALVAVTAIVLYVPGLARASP
Description: as §1, §2

EDN2 = molecular target: T6, EDN2 (human, UniProt P20800)
T6 construct: expressed in transfected HEK293 cells
T6 sequence (looked up): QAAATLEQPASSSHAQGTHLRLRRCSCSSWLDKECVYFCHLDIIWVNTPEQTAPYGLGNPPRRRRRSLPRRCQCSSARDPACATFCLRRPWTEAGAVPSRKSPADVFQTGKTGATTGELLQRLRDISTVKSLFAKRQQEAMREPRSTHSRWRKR
Description: as §1, §2

Measured: binding result

T2 sequence (Q86Y22 whole entry): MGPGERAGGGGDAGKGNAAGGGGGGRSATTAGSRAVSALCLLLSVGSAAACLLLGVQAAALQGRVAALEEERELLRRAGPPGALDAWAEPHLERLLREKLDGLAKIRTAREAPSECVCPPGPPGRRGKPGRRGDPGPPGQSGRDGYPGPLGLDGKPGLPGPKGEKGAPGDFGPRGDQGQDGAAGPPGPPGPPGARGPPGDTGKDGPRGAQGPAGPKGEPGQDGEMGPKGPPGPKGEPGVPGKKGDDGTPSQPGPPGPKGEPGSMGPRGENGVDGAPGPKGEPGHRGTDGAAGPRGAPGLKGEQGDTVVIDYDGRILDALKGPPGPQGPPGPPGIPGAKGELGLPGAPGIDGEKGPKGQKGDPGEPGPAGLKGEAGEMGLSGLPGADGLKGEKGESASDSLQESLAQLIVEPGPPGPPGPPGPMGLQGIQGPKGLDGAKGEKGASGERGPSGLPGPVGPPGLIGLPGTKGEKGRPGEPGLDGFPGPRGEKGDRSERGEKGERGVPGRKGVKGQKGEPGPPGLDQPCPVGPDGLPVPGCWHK

B1: humanized h37M, human IgG1 (antibody, V domains shown)
VH: QVQLVQSGAEVKKPGASVKLSCKASGYTFTDYYINWVRQAPGKGLEWIARIYPGSGNTYYNEKFKGRATLTADKSTSTAYMQLSSLRSEDTAVYFCARGVYYFDYWGQGTTVTVSS
VL: DIVMTQSPSSLSASVGDRVTITCKASQNVRTNVAWYQQKPGKAPKALIYSASYRYSGVPDRFTGSGSGTDFTLTISSLQPEDFADYFCQQYNSYPRTFGGGTKVEIK
notes: human IgG1; terbium-labelled as the tracer of the HTRF assays; also called C-KIT-h37M; h37M-IgG1
no binding (tested: 2 µg/ml): all assays above

— US20200283521A1 (GRANULAR THERAPEUTICS, published 2020)
